Measurements as given in doi:10.1101/2024.06.16.599208, “A transcription-driven microgel network poised near the sol-gel transition”.

Biological target: SAF-A SPRNK domain (SPRY/PNK) WT (UniProt Q00839 221-679)
Assay: EMSA; 8 mM HEPES pH 7.5, 60 mM KOAc, 16 mM MgOAc; 1 h on ice; 0.125 uM RNA, 0-8 uM protein; 7% acrylamide gel; n=3
Conditions: protein: recombinant; (nickel IMAC); label: DY681

Chain of SAF-A SPRNK domain (SPRY/PNK) WT (Q00839 221-679): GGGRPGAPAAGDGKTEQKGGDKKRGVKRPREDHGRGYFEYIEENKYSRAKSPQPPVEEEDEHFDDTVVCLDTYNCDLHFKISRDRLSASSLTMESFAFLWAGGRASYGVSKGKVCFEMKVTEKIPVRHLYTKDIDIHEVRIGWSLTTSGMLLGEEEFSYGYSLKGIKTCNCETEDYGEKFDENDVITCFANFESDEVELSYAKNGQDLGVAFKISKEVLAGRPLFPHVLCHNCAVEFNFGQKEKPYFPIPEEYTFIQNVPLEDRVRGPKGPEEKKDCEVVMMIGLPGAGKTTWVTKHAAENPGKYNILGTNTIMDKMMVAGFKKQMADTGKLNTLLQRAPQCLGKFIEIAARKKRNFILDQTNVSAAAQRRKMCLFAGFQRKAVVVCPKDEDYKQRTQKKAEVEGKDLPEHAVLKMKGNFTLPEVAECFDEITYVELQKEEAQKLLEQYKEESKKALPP

B1: oligoA20-DY681 (ssRNA)
RNA: AAAAAAAAAAAAAAAAAAAA
binding result: binds
